In the supplement of paper PMC5998384:

Tested on: HeLa Kyoto
Test: melting temperature (median over replicates), in situ; higher = more thermally stable
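Also: HeLa Kyoto cells synchronized by double thymidine or nocodazole block, proteins quantified by TMT10plex mass spectrometry, three independent biological replicates.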

## MAAAAAGLGGGGAGPGPEAGDFLARYRLVSNKLKKRFLRKPNVAEAGEQFGQLGRELRAQECLPYAAWCQLAVARCQQALFHGPGEALALTEAARLFLRQERDARQRLVCPAAYGEPLQAAASALGAAVRLHLELGQPAAAAALCLELAAALRDLGQPAAAAGHFQRAAQLQLPQLPLAALQALGEAASCQLLARDYTGALAVFTRMQRLAREHGSHPVQSLPPPPPPAPQPGPGATPALPAALLPPNSGSAAPSPAALGAFSDVLVRCEVSRVLLLLLLQPPPAKLLPEHAQTLEKYSWEAFDSHGQESSGQLPEELFLLLQSLVMATHEKDTEAIKSLQVEMWPLLTAEQNHLLHLVLQETISPSGQGV [F8A1]
Cell cycle stage: mitosis
  melting temperature: 50.9 °C

## MAAAELADTQLMLGVGLIEKDTNGEVLWVWCYPSTTATLRNLLLRKCCLTDENKLLHPFVFGQYRRTWFYITIIEVPDSSILKKVTHFSIVLTAKDFNPEKYAAFTRILCRMYLKHGSPVKMMESYIAVLTKGICQSEENGSFLSKDFDARKAYPAGSIKDIVSQFGMETVILHTALMLKKRIVVYHPKIEAVQEFTRTLPALVWHRQDWTILHSYVHLNADELEALQMCTGYVAGFVDLEVSNRPDLYDVFVNLAESEITIAPLAKEAMAMGKLHKEMGQLIVQSAEDPEKSESQVIQDIALKTREIFTNLAPFSEVSADGEKRVLNLEALKQKRFPPATENFLYHLAAAEQMLKI [FAM45BP]
Cell cycle stage: G1/S
  melting temperature: 50.6 °C
Cell cycle stage: mitosis
  melting temperature: 50.5 °C

## MAAEADGPLKRLLVPILLPEKCYDQLFVQWDLLHVPCLKILLSKGLGLGIVAGSLLVKLPQVFKILGAKSAEGLSLQSVMLELVALTGTMVYSITNNFPFSSWGEALFLMLQTITICFLVMHYRGQTVKGVAFLACYGLVLLVLLSPLTPLTVVTLLQASNVPAVVVGRLLQAATNYHNGHTGQLSAITVFLLFGGSLARIFTSIQETGDPLMAGTFVVSSLCNGLIAAQLLFYWNAKPPHKQKKAQ [MPDU1]
Cell cycle stage: G1/S
  melting temperature: 59.2 °C
Cell cycle stage: mitosis
  melting temperature: 59.2 °C

## MAEEEGPPVELRQRKKPKSSENKESAKEEKISDIPIPERAPKHVLFQRFAKIFIGCLAAVTSGMMYALYLSAYHERKFWFSNRQELEREITFQGDSAIYYSYYKDMLKAPSFERGVYELTHNNKTVSLKTINAVQQMSLYPELIASILYQATGSNEIIEPVYFYIGIVFGLQGIYVTALFVTSWLMSGTWLAGMLTVAWFVINRVDTTRIEYSIPLRENWALPYFACQIAALTGYLKSNLNTYGERFCYLLMSASTYTFMMMWEYSHYLLFLQAISLFLLDTFSVEQSDKVYEVYKIYIFSLFLGYLLQFENPALLVSPLLSLVAALMLAKCLQLNVKKGSFVAKIIKVINFYLVCTLTITLNIIMKMFVPHKENGHMLKFLEVKFGLNMTKNFTMNWLLCQESLQAPSQDFFLRLTQSSLLPFYILVLIICFLSMLQVIFRRINGKSLKETVTLEDGRIGERPEIIYHVIHTILLGSLAMVIEGLKYIWIPYVCMLAAFGVCSPELWMTLFKWLRLRTVHPILLALILSMAVPTIIGLSLWKEFFPRLMTELMELQEFYDPDTVELMTWIKRQAPVAAVFAGSPQLMGAIKLCTGWMVTSLPLYNDDDLLKRNENIYQIYSKRSAEDIYKILTSYKANYLIVEDAICNEVGPMRGCRVKDLLDIANGHMVCEEGDKLTYSKYGRFCHEVKINYSPYVNYFTRVYWNRSYFVYKINTVISFQS [DPY19L4]
Cell cycle stage: G1/S
  melting temperature: 54.5 °C
Cell cycle stage: mitosis
  melting temperature: 56.9 °C

## MAEEMESSLEASFSSSGAVSGASGFLPPARSRIFKIIVIGDSNVGKTCLTYRFCAGRFPDRTEATIGVDFRERAVEIDGERIKIQLWDTAGQERFRKSMVQHYYRNVHAVVFVYDMTNMASFHSLPSWIEECKQHLLANDIPRILVGNKCDLRSAIQVPTDLAQKFADTHSMPLFETSAKNPNDNDHVEAIFMTLAHKLKSHKPLMLSQPPDNGIILKPEPKPAMTCWC [RAB33B]
Cell cycle stage: G1/S
  melting temperature: 54.3 °C
Cell cycle stage: mitosis
  melting temperature: 55 °C

## MAELQMLLEEEIPGGRRALFDSYTNLERVADYCENNYIQSADKQRALEETKAYTTQSLASVAYLINTLANNVLQMLDIQASQLRRMESSINHISQTVDIHKEKVARREIGILTTNKNTSRTHKIIAPANLERPVRYIRKPIDYTILDDIGHGVKWLLRFKVSTQNMKMGGLPRTTPPTQKPPSPPMSGKGTLGRHSPYRTLEPVRPPVVPNDYVPSPTRNMAPSQQSPVRTASVNQRNRTYSSSGSSGGSHPSSRSSSRENSGSGSVGVPIAVPTPSPPSVFPAPAGSAGTPPLPATSASAPAPLVPATVPSSTAPNAAAGGAPNLADGFTSPTPPVVSSTPPTGHPVQFYSMNRPASRHTPPTIGGSLPYRRPPSITSQTSLQNQMNGGPFYSQNPVSDTPPPPPPVEEPVFDESPPPPPPPEDYEEEEAAVVEYSDPYAEEDPPWAPRSYLEKVVAIYDYTKDKEDELSFQEGAIIYVIKKNDDGWYEGVMNGVTGLFPGNYVESIMHYSE [ABI2]
Cell cycle stage: G1/S
  melting temperature: 52.3 °C
Cell cycle stage: mitosis
  melting temperature: 52.5 °C

## MAGAGPTMLLREENGCCSRRQSSSSAGDSDGEREDSAAERARQQLEALLNKTMRIRMTDGRTLVGCFLCTDRDCNVILGSAQEFLKPSDSFSAGEPRVLGLAMVPGHHIVSIEVQRESLTGPPYL [NAA38]
Cell cycle stage: G1/S
  melting temperature: 52.1 °C
Cell cycle stage: mitosis
  melting temperature: 52.4 °C

## MAPRGRKRKAEAAVVAVAEKREKLANGGEGMEEATVVIEHCTSURVYGRNAAALSQALRLEAPELPVKVNPTKPRRGSFEVTLLRPDGSSAELWTGIKKGPPRKLKFPEPQEVVEELKKYLS [C11ORF31]
Cell cycle stage: mitosis
  melting temperature: 52.2 °C

## MASRWWRWRRGCSWKPAARSPGPGSPGRAGPLGPSAAAEVRAQVHRRKGLDLSQIPYINLVKHLTSACPNVCRISRFHHTTPDSKTHSGEKYTDPFKLGWRDLKGLYEDIRKELLISTSELKEMSEYYFDGKGKAFRPIIVALMARACNIHHNNSRHVQASQRAIALIAEMIHTASLVHDDVIDDASSRRGKHTVNKIWGEKKAVLAGDLILSAASIALARIGNTTVISILTQVIEDLVRGEFLQLGSKENENERFAHYLEKTFKKTASLIANSCKAVSVLGCPDPVVHEIAYQYGKNVGIAFQLIDDVLDFTSCSDQMGKPTSADLKLGLATGPVLFACQQFPEMNAMIMRRFSLPGDVDRARQYVLQSDGVQQTTYLAQQYCHEAIREISKLRPSPERDALIQLSEIVLTRDK [PDSS1]
Cell cycle stage: mitosis
  melting temperature: 51.7 °C

## MEALLLGAGLLLGAYVLVYYNLVKAPPCGGMGNLRGRTAVVTGANSGIGKMTALELARRGARVVLACRSQERGEAAAFDLRQESGNNEVIFMALDLASLASVRAFATAFLSSEPRLDILIHNAGISSCGRTREAFNLLLRVNHIGPFLLTHLLLPCLKACAPSRVVVVASAAHCRGRLDFKRLDRPVVGWRQELRAYADTKLANVLFARELANQLEATGVTCYAAHPGPVNSELFLRHVPGWLRPLLRPLAWLVLRAPRGGAQTPLYCALQEGIEPLSGRYFANCHVEEVPPAARDDRAAHRLWEASKRLAGLGPGEDAEPDEDPQSEDSEAPSSLSTPHPEEPTVSQPYPSPQSSPDLSKMTHRIQAKVEPEIQLS [DHRS13]
Cell cycle stage: mitosis
  melting temperature: 50 °C

## MEEKQILCVGLVVLDVISLVDKYPKEDSEIRCLSQRWQRGGNASNSCTVLSLLGAPCAFMGSMAPGHVADFLVADFRRRGVDVSQVAWQSKGDTPSSCCIINNSNGNRTIVLHDTSLPDVSATDFEKVDLTQFKWIHIEGRNASEQVKMLQRIDAHNTRQPPEQKIRVSVEVEKPREELFQLFGYGDVVFVSKDVAKHLGFQSAEEALRGLYGRVRKGAVLVCAWAEEGADALGPDGKLLHSDAFPPPRVVDTLGAGDTFNASVIFSLSQGRSVQEALRFGCQVAGKKCGLQGFDGIV [KHK]
Cell cycle stage: G1/S
  melting temperature: 54.2 °C

## MFSLPLNCSPDHIRRGSCWGRPQDLKIAAPAWNSKCHPGAGAAMARQHARTLWYDRPRYVFMEFCVEDSTDVHVLIEDHRIVFSCKNADGVELYNEIEFYAKVNSKPVWLSVDFDNWRDWEGDEEMELAHVEHYAELLKKVSTKRPPPAMDDLDDDSDSADDATSN [PTGES3L]
Cell cycle stage: G1/S
  melting temperature: 49.8 °C
Cell cycle stage: mitosis
  melting temperature: 49.9 °C
